This data set relates to GST-NR2F6 fusion protein, full-length, wild-type.
Sequence of GST-NR2F6 fusion protein, full-length, wild-type (chain, as listed by the source): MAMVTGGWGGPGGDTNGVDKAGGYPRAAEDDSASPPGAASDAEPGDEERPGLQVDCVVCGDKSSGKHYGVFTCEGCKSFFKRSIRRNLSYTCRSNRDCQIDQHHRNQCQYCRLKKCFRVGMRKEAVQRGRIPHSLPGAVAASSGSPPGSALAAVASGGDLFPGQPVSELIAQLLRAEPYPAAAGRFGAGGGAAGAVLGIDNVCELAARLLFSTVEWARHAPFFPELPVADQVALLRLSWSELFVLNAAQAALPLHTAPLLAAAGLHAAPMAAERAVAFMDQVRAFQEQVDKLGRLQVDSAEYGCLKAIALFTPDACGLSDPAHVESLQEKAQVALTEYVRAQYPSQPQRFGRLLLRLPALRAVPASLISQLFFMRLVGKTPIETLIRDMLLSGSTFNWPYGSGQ

B1: recombinant PKCzeta (enzyme, UniProt Q05513 1-592, looked up, species assumed)
Protein kinase C zeta type: MPSRTGPKMEGSGGRVRLKAHYGGDIFITSVDAATTFEELCEEVRDMCRLHQQHPLTLKWVDSEGDPCTVSSQMELEEAFRLARQCRDEGLIIHVFPSTPEQPGLPCPGEDKSIYRRGARRWRKLYRANGHLFQAKRFNRRAYCGQCSERIWGLARQGYRCINCKLLVHKRCHGLVPLTCRKHMDSVMPSQEPPVDDKNEDADLPSEETDGIAYISSSRKHDSIKDDSEDLKPVIDGMDGIKISQGLGLQDFDLIRVIGRGSYAKVLLVRLKKNDQIYAMKVVKKELVHDDEDIDWVQTEKHVFEQASSNPFLVGLHSCFQTTSRLFLVIEYVNGGDLMFHMQRQRKLPEEHARFYAAEICIALNFLHERGIIYRDLKLDNVLLDADGHIKLTDYGMCKEGLGPGDTTSTFCGTPNYIAPEILRGEEYGFSVDWWALGVLMFEMMAGRSPFDIITDNPDMNTEDYLFQVILEKPIRIPRFLSVKASHVLKGFLNKDPKERLGCRPQTGFSDIKSHAFFRSIDWDLLEKKQALPPFQPQITDDYGLDNFDTQFTSEPVQLTPDDEDAIKRIDQSEFEGFEYINPLLLSTEESV
For B1, the “phosphorylation (32P incorporation), in vitro protein kinase assay” value was “(but not PKCzeta or PKA)”.

Source of the values: patent US20110236427.
